Experimental findings from CN108285485A (WULUMUQI HENGKANG ZHIYUAN BIOTECHNOLOGY CO LTD, dated 2018) are described below.

In the assay the target is PD-1蛋白 (程序性死亡受体-1). The experiment in a line: non-competitive ELISA, PD-1 coated at 2, 1, 0.5 and 0.25 μg/ml, KA=(n-1)/(nAb'-Ab).
PD-1蛋白 (程序性死亡受体-1), sequence (chain, as listed by the source): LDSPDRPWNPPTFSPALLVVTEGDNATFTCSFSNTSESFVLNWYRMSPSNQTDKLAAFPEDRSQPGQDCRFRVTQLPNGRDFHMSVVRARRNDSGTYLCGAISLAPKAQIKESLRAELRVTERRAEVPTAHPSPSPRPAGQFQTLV

B1: His-VHH-H12-c-Myc (VHH)
VHH: QVQLQESGGGSVQAGGSLRLSCAVSGGTTRRRCMGWFRQAPGKEREEVASYDNQGIIKYADFVKGRFTISRDNAKNTLYLQMNTLKPEDTAMYYCAMAPGYDNRGCLVYNTWGQGTQVTVSS
notes: Bactrian camel VHH expressed from pET22b in BL21(DE3); not shown: His tag, named only in the construct name; c-Myc tag, named only in the construct name
In the case of B1, the Ka turned out to be 4.79e+11 M⁻¹.

B2: His-VHH-H5-c-Myc (VHH)
VHH: QVQLQESGGGSVQAGGSLRLSCAASGSTVRRRCMGWFRQAPGKEREEVAIVDNEGIEQYADFVKGRFTISRDNAKNTLYLQMNSLKPEDTAMYYCAMAPGYTPTGCLVYNTWGQGTQVTVSS
notes: as for B1
Take B2: the Ka came out at 2.62e+11 M⁻¹.

B3: His-VHH-B7-c-Myc (VHH)
VHH: QVQLQESGGGSVQAGGSLRLSCVASQYTYNTVGWFRQAPGKEREGVAGIYNGGDQTYYSESAKGRFTISQDNAKRTVYLQMNSLKPEDTAMYYCAAGRLIVSGRWSMTKEEYQYWGQGTQVTVSS
notes: as for B1
Take B3: the Ka was 2.31e+11 M⁻¹.
